From publication PMC4694137

Assays:
[1] = target: AgaR1 (SSU05_0448) protein from Streptococcus suis (Streptococcus suis); assay: cross-linking; purified protein (~5 mg/mL) in 15 uL incubated with EGS cross-linker (0, 2.5, 5, 10, 20 umol/L for AgaR2; 0.1, 0.2, 0.5, 1.0, 2.5, 5, 10, 20 umol/L for AgaR1) for 1 h at room temperature; 12% SDS-PAGE, Coomassie staining
[2] = target: AgaR2 (SSU05_0447) protein from Streptococcus suis (Streptococcus suis); assay: as above

| Substance | stoichiometry N [1] | stoichiometry N [2] |
| --- | --- | --- |
| AgaR1 (SSU05_0448) protein from Streptococcus suis (natural protein) | 2 |  |
| AgaR2 (SSU05_0447) protein from Streptococcus suis (natural protein) |  | 2 |
